According to the supplement of paper PMC10266784:

B1: library; numbered along this chain (parent)
chain: MAAAAAAAAEQQSSNGPVKKSMREKAVERRSVNKEHNSNFKAGYIPIDEDRLHKTGLRGRKGNLAICVIILLFILAVINLIITLVIWAVIRIGPNGCDSMEFHESGLLRFKQVSDMGVIHPLYKSTVGGRRNENLVITGNNQPIVFQQGTTKLSVENNKTSITSDIGMQFFDPRTQNILFSTDYETHEFHLPSGVKSLNVQKASTERITSNATSDLNIKVDGRAIVRGNEGVFIMGKTIEFHMGGNMELKAENSIILNGSVMVSTTRLPSSSSGDQLGSGDWVRYKLCMCADGTLFKVQVTSQNMGCQISDNPCGNTH

Variants of: B1
Test: SGCB cell-surface expression functional score (HA stain, bin4 vs bin1, normalised to synonymous) (log10 ratio); higher = more cell-surface SGCB (functional)
In short: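 Human beta-sarcoglycan, tagged with HA and fused to YFP, was built into codon-saturation libraries and delivered by lentivirus at MOI <0.1 into HEK293 cells that stably express alpha-, gamma- and delta-sarcoglycan. After 72 hours, YFP-positive cells were sorted and grown for 5–7 days, then stained on ice with Alexa Fluor 647 anti-HA, fixed, sorted into four 5% intensity bins and amplicon-sequenced. Each variant's functional score is the log ratio of its frequency in the highest bin to that in the lowest bin, taken as the median across codons and transductions. Transductions were done in duplicate, and synonymous variants were scaled per section to mean 0, SD 0.5.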

SGCB cell-surface expression functional score (log10): each site, then its substitutions
N95: G 0.21 | A 0.01 | Q -0.12 | S 0.16 | T -0.1 | K 0.16 | L -0.06 | I -0.83 | R -0.09 | C -0.17 | D -0.24 | E 0.05 | W 0.34 | P -1.26 | Y 0.15 | H -1.18 | V -0.38 | F 0.3 | M 0.68
D98: L 0.1 | G -0.2 | C -0.07 | E -0.21 | R -0.16 | P -0.12 | H 0.4 | F -0.64 | Q -0.02 | N -0.3 | K -0.4 | V -0.14 | A 0.32 | T 0.06 | M 0.01 | S 0.3 | Y -0.66 | W -0.73 | I -1
M100: K -2.02 | H -1.39 | C -1.81 | T -1.55 | V -0.03 | G -1.04 | F -0.46 | W -1.82 | I -0.14 | N -2.37 | Q -1.26 | R -1.19 | E -1.92 | Y -2.14 | A -1.33 | D -1.82 | S -2.02 | P -2.03
W87: T -0.05 | G -0.12 | I 0.48 | R -0.12 | E -0.7 | S 0.18 | N 0.58 | Y 0 | M 0.4 | H -0.27 | F 0.33 | A -0.18 | C -0.23 | P -0.55 | L -0.04 | K 0.25 | Q 0.02 | D 0.08 | V -0.45
S99: Y 0.12 | A -0.01 | T -0.4 | W -0.35 | C -0.72 | Q -2.34 | F 0.86 | I -0.54 | V 0.15 | H -0.65 | P -0.38 | D -1.16 | K -1.57 | R -1.61 | N -0.77 | G -0.07 | E -1.96 | M 0.21 | L 0.18
H103: C -0.1 | A 0.32 | D 0
G93: E -1.2 | S -0.25 | M -1.49 | N -0.14 | I -2.15 | T 0.23 | Y -1.86 | V -1.79 | H 0.32 | D -0.19 | F -1.18 | P -1.64 | Q -0.8 | W -0.45 | A -0.97 | K -0.15 | R -0.4 | C -1.43 | L -1.84
A88: Y 0.01 | V 0.25 | P -1.07 | K 0.62 | N -0.37 | G 0.19 | W -0.36 | E -0.1 | H 0.49 | D 0.41 | C -0.27 | L 0.14 | R -0.43 | Q 0.15 | T 0.17 | S 0.49 | M -0.05 | I 0.06 | F 0.14
G96: H -1.77 | F -2.5 | N -2.04 | A -1.24 | V -1.95 | E -1.89 | M -1.68 | K -2.21 | S -1.81 | L -2.08 | D -2.13 | R -1.51 | P -1.62 | W -0.61 | C -1.66 | I -1.54 | Q -2.14 | Y -2.29 | T -1.72
C97: W -1.46 | M -0.29 | H -2.29 | Y -1.89 | S -0.18 | P -0.47 | I 0.31 | A -0.14 | N -1.16 | Q -1.14 | E -1.87 | V 0.16 | K -1.3 | R -1.75 | F -1.5 | T -0.03 | D -2.33 | G -1.91 | L 0.37
I86: V 0.32 | L -0.35 | E -0.39 | K -0.65 | Q -0.24 | C -0.24 | H -1.91 | A -0.08 | G -0.59 | T -0.15 | F -0.48 | Y -0.61 | W -2.19 | D -0.79 | S -0.98 | P -0.94 | N -0.75 | M -0.18 | R -0.77
P94: Q 0.21 | I -0.61 | S -0.11 | R -0.65 | D -1.08 | Y 0.29 | V -0.24 | A 0.03 | M 0.27 | E -0.29 | H 0.01 | L -0.17 | C -0.07 | N -0.88 | G -0.25 | T -0.07 | K 0.29 | F 0.24 | W 0.26
R91: N -0.75 | S -0.79 | E -0.8 | T -2.04 | Q 0.15 | H 0 | G -0.52 | A -0.38 | K 0.34 | F -1.71 | W -1.69 | M -1.94 | I -1.85 | C -0.72 | V -1.43 | L -1.93 | P -1.76 | D -1.32 | Y -1.94
V89: L -1.13 | T -0.3 | F -1.21 | W -1.16 | N -2.05 | C 0 | Y -1.29 | E -0.95 | Q -1.44 | M -0.96 | S -0.41 | K 0.02 | I -0.52 | G -0.36 | H -1.8 | P -0.88 | A -0.23 | R -0.63 | D -2.32
F102: K -1.02 | Y -1.16 | V -1.57 | S -1.18 | P -1.4 | L -0.5 | G -0.51 | N -1.53 | Q -1.39 | D -0.88 | M -0.45 | E -1.93 | H 0.01 | C -1.3 | A -1.01 | R -1.14 | T -1.16 | W -0.12 | I -1.26
I90: E -1.22 | T 0.06 | P -1.1 | F -1.5 | A 0.12 | R -0.63 | K 0.13 | Q -0.71 | V 0.01 | C 0.33 | G -0.76 | L 0.26 | W -0.2 | Y -1.02 | M -0.16 | N 0.07 | S -0.35 | H -1.82 | D -0.63
V85: M 0.58 | W -0.09 | N -0.37 | S -0.2 | T -0.05 | Y -0.17 | P -1.14 | R -0.06 | Q 0.08
I92: R -1.46 | H -1.9 | T -1.03 | W -2.43 | N -1.68 | F -0.74 | P -1.96 | S -2.23 | G -0.75 | Q -1.97 | L -0.39 | E -2.15 | Y -2.16 | A -1.94 | M -0.21 | K -1.31 | D -2.38 | C -1.75 | V -0.31
E101: C -1.14 | D -0.49 | T -0.54 | W -1.04 | N -1.22 | F -0.8 | M -0.63 | A -0.15 | L -0.35 | Q -0.15 | G -0.26 | H -1.14 | P -1.78 | Y -0.43 | S -0.39 | I -0.3 | R -0.59 | V -0.43 | K -0.77
